Measured values taken from the Human Domainome abundance scans (Beltran et al. 2025).
± gives the uncertainty stated by the source.

Test: abundance fitness (aPCA) (normalised: wild type 0, dead -1); higher = more abundant; growth selection in yeast, the domain comes from the species named
Details: Homo sapiens

Substance | abundance fitness
Scaffold attachment factor B2 L56G, Q14151 | -0.285 ± 0.079
Scaffold attachment factor B2 L56H, Q14151 | -0.296 ± 0.094
Scaffold attachment factor B2 L56K, Q14151 | -0.524 ± 0.096
Scaffold attachment factor B2 L56M, Q14151 | -0.179 ± 0.099
Scaffold attachment factor B2 L56N, Q14151 | -1.2 ± 0.43
Scaffold attachment factor B2 L56P, Q14151 | -0.319 ± 0.13
Scaffold attachment factor B2 L56Q, Q14151 | -0.378 ± 0.28
Scaffold attachment factor B2 L56R, Q14151 | -0.39 ± 0.07
Scaffold attachment factor B2 L56S, Q14151 | -0.434 ± 0.1
Scaffold attachment factor B2 L56T, Q14151 | -0.546 ± 0.12
Scaffold attachment factor B2 L56V, Q14151 | -0.369 ± 0.082
Scaffold attachment factor B2 L56W, Q14151 | -0.631 ± 0.086
Scaffold attachment factor B2 L56Y, Q14151 | -1.01 ± 0.23
Scaffold attachment factor B2 L60A, Q14151 | -0.323 ± 0.094
Scaffold attachment factor B2 L60C, Q14151 | -0.691 ± 0.14
Scaffold attachment factor B2 L60D, Q14151 | -0.019 ± 0.14
Scaffold attachment factor B2 L60F, Q14151 | -0.448 ± 0.16
Scaffold attachment factor B2 L60G, Q14151 | -0.25 ± 0.084
Scaffold attachment factor B2 L60K, Q14151 | -0.204 ± 0.14
Scaffold attachment factor B2 L60M, Q14151 | -0.343 ± 0.15
Scaffold attachment factor B2 L60N, Q14151 | -0.35 ± 0.22
Scaffold attachment factor B2 L60P, Q14151 | -0.102 ± 0.14

Substance | abundance fitness
Scaffold attachment factor B2 L60Q, Q14151 | -0.271 ± 0.15
Scaffold attachment factor B2 L60S, Q14151 | -0.398 ± 0.16
Scaffold attachment factor B2 L60V, Q14151 | -0.361 ± 0.09
Scaffold attachment factor B2 M57A, Q14151 | -0.454 ± 0.087
Scaffold attachment factor B2 M57C, Q14151 | -0.504 ± 0.12
Scaffold attachment factor B2 M57D, Q14151 | -0.788 ± 0.18
Scaffold attachment factor B2 M57E, Q14151 | -0.292 ± 0.11
Scaffold attachment factor B2 M57G, Q14151 | -0.631 ± 0.09
Scaffold attachment factor B2 M57H, Q14151 | -0.392 ± 0.14
Scaffold attachment factor B2 M57I, Q14151 | -0.319 ± 0.099
Scaffold attachment factor B2 M57K, Q14151 | -0.473 ± 0.13
Scaffold attachment factor B2 M57L, Q14151 | -0.088 ± 0.11
Scaffold attachment factor B2 M57N, Q14151 | -0.492 ± 0.14
Scaffold attachment factor B2 M57P, Q14151 | -0.66 ± 0.093
Scaffold attachment factor B2 M57Q, Q14151 | -0.364 ± 0.094
Scaffold attachment factor B2 M57S, Q14151 | -0.49 ± 0.088
Scaffold attachment factor B2 M57T, Q14151 | -0.363 ± 0.1
Scaffold attachment factor B2 M57V, Q14151 | -0.189 ± 0.08
Scaffold attachment factor B2 M57W, Q14151 | -0.791 ± 0.11
Scaffold attachment factor B2 N46A, Q14151 | -0.317 ± 0.076
Scaffold attachment factor B2 N46C, Q14151 | -0.656 ± 0.12
Scaffold attachment factor B2 N46D, Q14151 | -0.104 ± 0.12

Substance | abundance fitness
Scaffold attachment factor B2 N46E, Q14151 | -0.131 ± 0.092
Scaffold attachment factor B2 N46G, Q14151 | 0.006 ± 0.084
Scaffold attachment factor B2 N46H, Q14151 | -0.432 ± 0.16
Scaffold attachment factor B2 N46K, Q14151 | -0.214 ± 0.088
Scaffold attachment factor B2 N46L, Q14151 | -0.355 ± 0.087
Scaffold attachment factor B2 N46M, Q14151 | -0.394 ± 0.17
Scaffold attachment factor B2 N46P, Q14151 | -0.514 ± 0.087
Scaffold attachment factor B2 N46Q, Q14151 | 0.023 ± 0.14
Scaffold attachment factor B2 N46R, Q14151 | -0.358 ± 0.073
Scaffold attachment factor B2 N46S, Q14151 | -0.135 ± 0.088
Scaffold attachment factor B2 N46T, Q14151 | -0.444 ± 0.099
Scaffold attachment factor B2 N46V, Q14151 | -0.515 ± 0.081
Scaffold attachment factor B2 N46W, Q14151 | -1.28 ± 0.2
Scaffold attachment factor B2 N46Y, Q14151 | -0.484 ± 0.11
Scaffold attachment factor B2 N52A, Q14151 | -0.132 ± 0.088
Scaffold attachment factor B2 N52D, Q14151 | 0.11 ± 0.13
Scaffold attachment factor B2 N52E, Q14151 | 0.123 ± 0.11
Scaffold attachment factor B2 N52F, Q14151 | -0.701 ± 0.18
Scaffold attachment factor B2 N52G, Q14151 | -0.037 ± 0.087
Scaffold attachment factor B2 N52H, Q14151 | -0.719 ± 0.14
Scaffold attachment factor B2 N52I, Q14151 | -0.237 ± 0.12
Scaffold attachment factor B2 N52K, Q14151 | -0.123 ± 0.093

Substance | abundance fitness
Scaffold attachment factor B2 N52L, Q14151 | -0.511 ± 0.081
Scaffold attachment factor B2 N52M, Q14151 | -0.442 ± 0.11
Scaffold attachment factor B2 N52P, Q14151 | -0.074 ± 0.088
Scaffold attachment factor B2 N52Q, Q14151 | -0.63 ± 0.31
Scaffold attachment factor B2 N52R, Q14151 | -0.229 ± 0.081
Scaffold attachment factor B2 N52T, Q14151 | -0.037 ± 0.093
Scaffold attachment factor B2 N52V, Q14151 | -0.116 ± 0.089
Scaffold attachment factor B2 N52W, Q14151 | -1.06 ± 0.13
Scaffold attachment factor B2 N52Y, Q14151 | -0.587 ± 0.28
Scaffold attachment factor B2 Q69A, Q14151 | -0.094 ± 0.13
Scaffold attachment factor B2 Q69C, Q14151 | -0.307 ± 0.2
Scaffold attachment factor B2 Q69F, Q14151 | -0.656 ± 0.2
Scaffold attachment factor B2 Q69G, Q14151 | 0.174 ± 0.095
Scaffold attachment factor B2 Q69H, Q14151 | -0.143 ± 0.2
Scaffold attachment factor B2 Q69I, Q14151 | -0.262 ± 0.11
Scaffold attachment factor B2 Q69K, Q14151 | -0.164 ± 0.1
Scaffold attachment factor B2 Q69L, Q14151 | -0.133 ± 0.11
Scaffold attachment factor B2 Q69M, Q14151 | -0.27 ± 0.19
Scaffold attachment factor B2 Q69N, Q14151 | -0.717 ± 0.32
Scaffold attachment factor B2 Q69P, Q14151 | -0.227 ± 0.15
Scaffold attachment factor B2 Q69R, Q14151 | -0.104 ± 0.074
Scaffold attachment factor B2 Q69S, Q14151 | -0.077 ± 0.11

Substance | abundance fitness
Scaffold attachment factor B2 Q69T, Q14151 | -0.261 ± 0.12
Scaffold attachment factor B2 Q69V, Q14151 | -0.175 ± 0.11
Scaffold attachment factor B2 Q69W, Q14151 | -0.285 ± 0.13
Scaffold attachment factor B2 R28A, Q14151 | -0.139 ± 0.094
Scaffold attachment factor B2 R28C, Q14151 | -0.271 ± 0.15
Scaffold attachment factor B2 R28D, Q14151 | 0.131 ± 0.081
Scaffold attachment factor B2 R28E, Q14151 | 0.088 ± 0.1
Scaffold attachment factor B2 R28G, Q14151 | 0.05 ± 0.071
Scaffold attachment factor B2 R28H, Q14151 | 0.063 ± 0.2
Scaffold attachment factor B2 R28I, Q14151 | -0.342 ± 0.18
Scaffold attachment factor B2 R28K, Q14151 | -0.033 ± 0.14
Scaffold attachment factor B2 R28L, Q14151 | -0.176 ± 0.11
Scaffold attachment factor B2 R28N, Q14151 | -0.005 ± 0.15
Scaffold attachment factor B2 R28P, Q14151 | -0.437 ± 0.22
Scaffold attachment factor B2 R28T, Q14151 | -0.045 ± 0.12
Scaffold attachment factor B2 R28W, Q14151 | -0.14 ± 0.086
Scaffold attachment factor B2 R28Y, Q14151 | -0.377 ± 0.18
Scaffold attachment factor B2 R29C, Q14151 | -0.474 ± 0.31
Scaffold attachment factor B2 R29D, Q14151 | 0.089 ± 0.093
Scaffold attachment factor B2 R29E, Q14151 | 0.113 ± 0.095
Scaffold attachment factor B2 R29F, Q14151 | -0.237 ± 0.15
Scaffold attachment factor B2 R29G, Q14151 | -0.127 ± 0.074
